Measured values from PMC4630614.

Molecular target: UbcA1, ubiquitin-conjugating enzyme E2 from Agrocybe aegerita (Agrocybe aegerita)
Assay: AUC; velocity sedimentation, Beckman XL-I, 4 °C, 40 μM protein, 50 mM Tris pH 7.5, 150 mM NaCl, 60,000 rpm, c(S) of Sedfit; monomer to dimer

- monomer : dimer ratio (monomer : dimer): 32.6
- stoichiometry N: 2
Substance: UbcA1, ubiquitin-conjugating enzyme E2 from Agrocybe aegerita
